Experimental data from patent US11732048B2, “Anti-axl antagonistic antibodies” (BERGEN TEKNOLOGIOVERFØRING AS, priority 2016, dated 2023).
Like-named read-outs stand apart in the source and are kept apart here.

T1: Tyro3 (rhTyro3/Dtk-Fc chimera) (Homo sapiens, UniProt Q06418)
T1 construct: Soluble recombinant antigens corresponding to the extracellular domains of members of the human TAM receptor family; Fc; purchased R&D Systems 859-DK
T1 sequence (Q06418 41-429 limits assumed): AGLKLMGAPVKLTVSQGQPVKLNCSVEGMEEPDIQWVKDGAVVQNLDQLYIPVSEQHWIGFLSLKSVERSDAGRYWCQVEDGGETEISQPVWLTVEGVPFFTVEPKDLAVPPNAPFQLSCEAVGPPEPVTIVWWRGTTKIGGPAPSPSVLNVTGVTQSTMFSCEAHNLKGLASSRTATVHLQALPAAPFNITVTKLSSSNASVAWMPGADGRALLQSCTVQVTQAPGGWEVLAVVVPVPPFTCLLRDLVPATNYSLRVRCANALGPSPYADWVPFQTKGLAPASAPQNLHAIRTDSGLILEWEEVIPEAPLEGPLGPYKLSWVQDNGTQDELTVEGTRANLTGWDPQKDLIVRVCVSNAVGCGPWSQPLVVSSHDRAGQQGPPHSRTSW


How the values were obtained:
[1] = biological target: T1, Tyro3 (rhTyro3/Dtk-Fc chimera); assay: Biacore binding analysis on immobilised human Tyro3; settings: 10 μg/mL in HBS-EP, 25° C.
Experimental: (§1) All binding experiments were performed using Biacore 3000 instrument (GE Healthcare) at 25° C. Soluble recombinant antigens corresponding to the extracellular domains of members of the human TAM receptor family, Axl (rhAxl-Fc chimera; R&D Systems, Cat. no. 154-AL), Mer (rhMer-Fc chimera; R&D Systems, Cat. no. 891-MR) and Tyro3 (rhTyro3/Dtk-Fc chimera; R&D Systems, Cat. no. 859-DK) were immobilized on the surface of CM5 sensor chip using amine coupling at the surface density of 393.0, 303.6 and 364.0 resonance units (RU), respectively. The Biacore run was performed in an automatic mode using Binding analysis wizard. Samples containing MAb 10G5 at concentration 10 μg/mL in HBS-EP buffer (GE Healthcare) were injected over the surfaces with immobilized antigens at flow rate of 30 μL/min for 3 min (association) followed by 5 min dissociation.
(§2) The binding experiments were performed using Biacore 3000 instrument (GE Healthcare) at 25° C. The soluble recombinant antigens corresponding to human Axl (rhAxl-Fc chimera; R&D Systems, Cat. no. 154-AL), mouse Axl (rmAxl-Fc chimera; R&D Systems, R&D Systems; Cat. no. 854-AX) and human Tyro3 (rhTyro3/Dtk-Fc chimera; R&D Systems, Cat. no. 859-DK) were immobilized on the surface of CM5 sensor chip using amine coupling at the surface density of 1,308.0, 2,115.9 and 1,429.0 RU, respectively. The Biacore runs were performed in an automatic mode using Binding analysis wizard.
(§3) The sample containing MAb 10G5 or recombinant mouse (rm) Axl-ligand Gas6 (R&D Systems, Cat. no. 986-GS/CF) at concentration 10 μg/mL in HBS-EP buffer (GE Healthcare) was injected over the surfaces with immobilized antigens at flow rate of 30 μL/min for 3 min (association) followed by 5 min dissociation.

[2] = biological target: T2, mouse Axl (rmAxl-Fc chimera; Mm-Axl-Fc) (Mus musculus, UniProt Q00993); assay: Biacore binding analysis on immobilised mouse Axl
T2 construct: The soluble recombinant antigens corresponding to human Axl (rhAxl-Fc chimera; R&D Systems, Cat. no; 154-AL), mouse Axl (rmAxl-Fc chimera; Fc; purchased R&D Systems 854-AX
T2 sequence (Q00993 19-445 limits assumed, change not shown): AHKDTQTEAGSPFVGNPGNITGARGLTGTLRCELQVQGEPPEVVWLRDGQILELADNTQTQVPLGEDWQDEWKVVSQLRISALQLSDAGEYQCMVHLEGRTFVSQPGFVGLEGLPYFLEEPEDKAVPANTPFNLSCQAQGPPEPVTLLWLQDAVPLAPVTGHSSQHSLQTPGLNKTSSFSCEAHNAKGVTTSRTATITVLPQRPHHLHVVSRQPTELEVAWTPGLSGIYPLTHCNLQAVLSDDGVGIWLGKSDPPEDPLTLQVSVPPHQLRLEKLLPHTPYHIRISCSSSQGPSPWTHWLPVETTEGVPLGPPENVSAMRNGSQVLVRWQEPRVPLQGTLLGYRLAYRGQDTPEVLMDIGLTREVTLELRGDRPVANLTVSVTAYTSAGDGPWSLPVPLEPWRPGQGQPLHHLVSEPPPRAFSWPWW
Experimental: as §2, §3
Sensor chip with immobilised Axl: Hs-Axl-Fc (638.2 RU), Mm-Axl-Fc (334.5 RU), Rhe-Axl-Fc (350.2 RU)
All tests were performed in parallel on Hs-Axl-Fc, Mm-Axl-Fc and Rhe-Axl-Fc surfaces.

[3] = biological target: T3, human Axl (rhAxl-Fc chimera) (Homo sapiens, UniProt P30530); assay: Biacore binding analysis on immobilised human Axl; settings: 10 μg/mL in HBS-EP, 25° C.
T3 construct: Soluble recombinant antigens corresponding to the extracellular domains of members of the human TAM receptor family; Fc; purchased R&D Systems 154-AL
Experimental: as §1, §2, §3
The sequence of Axl receptor from cynomolgus monkey (Macaca fascicularis; SEQ ID NO: 27) was retrieved from WO2009062690A1. Based on the sequence, recombinant extracellular domain of cyno-Axl was generated by transient expression in CHO cells as a fusion protein with human Fc. The recombinant cyno-Axl-Fc was purified to homogeneity using Protein A-Sepharose (GE Healthcare). The binding experiments were performed using Biacore 3000 instrument (GE Healthcare) at 25° C. The soluble recombinant antigens corresponding to human Axl (rhAxl-Fc chimera; R&D Systems, Cat. no. 154-AL) and cyno-Axl were immobilized on the surface of CM5 sensor chip using amine coupling at the surface density of 775 and 880 RU, respectively. The Biacore runs were performed in an automatic mode using Binding analysis wizard.
The sample containing MAb 10G5 or human Axl-specific MAb 5F11 (control) at concentration 10 μg/mL in HBS-EP buffer (GE Healthcare) was injected over the surfaces with immobilized antigens at flow rate of 30 μL/min for 3 min (association) followed by 5 min dissociation. […]

[4] = biological target: T3, human Axl (rhAxl-Fc chimera); assay: Biacore kinetic analysis (surface plasmon resonance) on immobilised rhAxl-Fc; format: binding
Experimental: Kinetic analysis of murine MAb 10G5 interacting with rhAxl immobilized on the surface of the Biacore sensor chip. Overlay plots of sensograms for different antibody concentrations (0.3-166.7 nM for murine 10G5) are shown. The precise kinetic analysis was performed using BIA evaluation software and curve fitting according to 1:1 Langmuir binding model. […]
Affinity determination of anti-Axl antibody 10G5 was performed at 25° C. by surface plasmon resonance measurements using Biacore 3000 instrument (GE Healthcare). As a solid antigen-coated surface, a sensor chip CM5 with immobilized rhAxl-Fc chimera (R&D Systems, Cat. no. 154-AL) at density 190 RU was used.
For the kinetics measurements, different concentrations of anti-Axl antibodies (from 0.3 to 666.7 nM) in HBS-EP buffer (Biacore, Cat. no. BR-1001-88) were injected at flow rate of 30 μL/min with 3 min injection time followed by 5 min dissociation (buffer alone). After each cycle, the surface was regenerated by 30 sec injection of a regeneration solution (10 mM HCl, 1 M NaCl) at flow rate 50 μL/min.
The kinetic association (on-rate, kon) and dissociation (off-rate, koff) rates were calculated using BIAevaluation software and 1:1 Langmuir binding model. The equilibrium dissociation constant (KD) was calculated as the koff/kon ratio. The half-life (t1/2) of the formed antibody-antigen complexes was calculated as the ln 2/koff ratio. […]

[5] = rhAxl immobilized on Biacore sensor chip, 25° C., 1:1 Langmuir binding model

Binding to recombinant human Tyro3 [1]	Binding to recombinant human Tyro3 ([1]; listed as murine Gas 6)	Binding to mouse Axl [2]	Binding to mouse Axl ([2]; listed as murine Gas 6)	Binding to human Axl [3]	Binding to human Axl ([3]; listed as murine Gas 6)	KD lower than that of the chimeric antibody ([4]; comparison referring to Table 3)	Off-rate (koff) [4, 5]	On-rate (kon) [4, 5]	Molecule
somewhat weaker binding	more weakly	strong binding	binds strongly	strong binding	binds strongly				mouse Gas6: recombinant mouse Axl-ligand Gas6 (R&D Systems) (protein) QCTPNPCDKKGTHICQDLMGNFFCVCTDGWGGRLCDKDVNECVQKNGGCSQVCHNKPGSFQCACHSGFSLASDGQTCQDIDECTDSDTCGDARCKNLPGSYSCLCDEGYTYSSKEKTCQDVDECQQDRCEQTCVNSPGSYTCHCDGRGGLKLSPDMDTCEDILPCVPFSMAKSVKSLYLGRMFSGTPVIRLRFKRLQPTRLLAEFDFRTFDPEGVLFFAGGRSDSTWIVLGLRAGRLELQLRYNGVGRITSSGPTINHGMWQTISVEELERNLVIKVNKDAVMKIAVAGELFQLERGLYHLNLTVGGIPFKESELVQPINPRLDGCMRSWNWLNGEDSAIQETVKANTKMQCFSVTERGSFFPGNGFATYRLNYTRTSLDVGTETTWEVKVVARIRPATDTGVLLALVGDDDVVPISVALVDYHSTKKLKKQLVVLAVEDVALALMEIKVCDSQEHTVTVSLREGEATLEVDGTKGQSEVSTAQLQERLDTLKTHLQGSVHTYVGGLPEVSVISAPVTAFYRGCMTLEVNGKILDLDTASYKHSDITSHSCPPVEHATP
						at least 30%	0.000161 s⁻¹	1.54e+06 M⁻¹ s⁻¹	H1L1: humanised 10G5 variant; presumably VH GH1 (SEQ ID NO: 1) with VL GL1 (SEQ ID NO: 3) (antibody, V domains shown, hu10G5 VH(GH1); hu10G5 VL(GL1)) VH: EVQLVQSGAGLVQPGGSVRLSCAASGYSFTDFYINWVRQAPGKGLEWIARIFPGGDNTYYNEKFKGRFTLSADTSSSTAYLQLNSLRAEDTAVYYCARRGLYYAMDYWGQGTLVTVSS VL: DIQMTQSPSSLSASVGDRVTITCRSSQSLVHSNGIPYLHWYQQKPGKAPKLLIYRVSNRFSGVPSRFSGSGSGTDFTLTISSLQPEDFATYYCSQGTHVPPTFGQGTKVEIK
